# According to the RNAGym collection of RNA variant scans (doi:10.7554/elife.90254):
# B1: LINE1-mini (parent)
# chain: GGCAGAGCUCAACACAGCGUGGCAAAGUGGCUGUGGCUAGACUGCC
# Variants of: B1
# Test: self-cleavage, relative activity (ratio to wild type); higher = more cleavage; in vitro, sequencing; the parent is a self-cleaving ribozyme
row,Variant,self-cleavage
1,GGCAGAGCUCAACAGAGCGUGGCGAAGUGGCUGUGGCUAGACUGCC [C15G A24G],0.03
2,GGCAGAGCUGAACACAGCGUGGCAAAGUGGCUGUGGCUAGACUGCC [C10G],0.11
3,GGCAGAGCUCCACACAGCGUGUCAAAGUGGCUGUGGCUAGACUGCC [A11C G22U],0.07
4,GGCAGAGCUCAACACACCGUGGCAAAGUGGCUGUGGCUAUACUGCC [G17C G40U],0.07
5,GGCGGAGCUCAACAUAGCGUGGCAAAGUGGCUGUGGCUAGACUGCC [A4G C15U],0.65
6,GGCAGAGCUCAACACAGCGAGGCAAAGUGGCUGUGGCUAGACUGCG [U20A C46G],0.79
7,GGCAGACCCCAACACAGCGUGGCAAAGUGGCUGUGGCUAGACUGCC [G7C U9C],0.03
8,UGCAGAGCUCAACACAGCGUGGCAAAGUGGCUGUGGCUAGAUUGCC [G1U C42U],0.06
9,GGCAGAGCUCAACACAGGGUGACAAAGUGGCUGUGGCUAGACUGCC [C18G G22A],0.82
10,GGCAGAACUCAACACAGCGUGGCAAACUGGCUGUGGCUAGACUGCC [G7A G27C],0.18
11,GGCGGAGCUCAACACAGCGUGGCAGAGUGGCUGUGGCUAGACUGCC [A4G A25G],0.36
12,GGCAGAGCUCAACACAGCGGGGCAAAGUGGCUGUUGCUAGACUGCC [U20G G35U],0.12
13,GGCAGAGCUCUACACAGCGUGGCAAAGUGGCUGUGGCUAGCCUGCC [A11U A41C],0.04
14,GGCAGAGCUCAACGCAACGUGGCAAAGUGGCUGUGGCUAGACUGCC [A14G G17A],0.17
15,GGCAGAACUCAACACAGCGUGGCAAAGUGGGUGUGGCUAGACUGCC [G7A C31G],0.08
16,GUCAGAGCUUAACACAGCGUGGCAAAGUGGCUGUGGCUAGACUGCC [G2U C10U],0.03
17,GGCAGAGCUCGACAGAGCGUGGCAAAGUGGCUGUGGCUAGACUGCC [A11G C15G],0.03
18,GGCAGUGCUCAACACAGCGUGGCAAAGUGGCUGUGGCUAGACUGCU [A6U C46U],0.75
19,GGCAGAGCUCGACACAGCGAGGCAAAGUGGCUGUGGCUAGACUGCC [A11G U20A],0.04

row,Variant,self-cleavage
1,GGCAGAGCUCAACACAGCGUGGCAUAGUGGCUGUGGCUAGACUGGC [A25U C45G],0.19
2,GGCAGAGCUCAACACAGCGUGGCAAGGUGGCUGUGGCUCGACUGCC [A26G A39C],0.18
3,GGCAGAGCUCAACACAGCGUUGCAAAGUGGCUGUGGCUAGACCGCC [G21U U43C],0.2
4,GGCAGAGCUCAACUCAGCGUGGCAAAGUGGCUCUGGCUAGACUGCC [A14U G33C],0.05
5,GGCAGAGCUCGACACAGCGUGGCAAAGCGGCUGUGGCUAGACUGCC [A11G U28C],0.03
6,GGCAGAGCUCAUCACAGCGUAGCAAAGUGGCUGUGGCUAGACUGCC [A12U G21A],0.52
7,GGCAGAGGUCAACACAGAGUGGCAAAGUGGCUGUGGCUAGACUGCC [C8G C18A],0.04
8,GGCAGAGCUCAACACAGAGUGGCAAAGUGGCUGUGCCUAGACUGCC [C18A G36C],0.03
9,GGCAGAGCUCAACACAGCCUGGGAAAGUGGCUGUGGCUAGACUGCC [G19C C23G],0.42
10,GGCAGAGCUCUACACAGCGUGGCAAAGUGGCUGUCGCUAGACUGCC [A11U G35C],0.01
11,GGCAGAGCUCAACACGGCGUGGCAAAGUGGCUGUCGCUAGACUGCC [A16G G35C],0.04
12,GGCAGAGCUCAACACGGCGUGGCGAAGUGGCUGUGGCUAGACUGCC [A16G A24G],0.16
13,GGCAGAGUUCAAGACAGCGUGGCAAAGUGGCUGUGGCUAGACUGCC [C8U C13G],0.29
14,AGCAGAGCUCAACACAGCGUGGCAAAGUGGGUGUGGCUAGACUGCC [G1A C31G],0.11
15,GGCAGAGCUCAACACAGCGUGGCAAAGUGGCUAUAGCUAGACUGCC [G33A G35A],0.07
16,GGCAGAGCUCAUCACAGCGGGGCAAAGUGGCUGUGGCUAGACUGCC [A12U U20G],0.09
17,GGCAGAGCUCUACACAGCGUGGCAAAGUGGCUGUGGUUAGACUGCC [A11U C37U],0.01
18,GGCAGAGCUCCACACAGCCUGGCAAAGUGGCUGUGGCUAGACUGCC [A11C G19C],0.08
19,GCCAGAGCUCAACACAGCGUGGCAAGGUGGCUGUGGCUAGACUGCC [G2C A26G],0.11

row,Variant,self-cleavage
1,GGCAGAGCUCAACACAGGGUGGCCAAGUGGCUGUGGCUAGACUGCC [C18G A24C],0.17
2,GGCGGAGGUCAACACAGCGUGGCAAAGUGGCUGUGGCUAGACUGCC [A4G C8G],0.11
3,GGCAGAGCUCAACACAGCGUGGCAACGUGGCUGUGGCGAGACUGCC [A26C U38G],0.03
4,GGCAGAGGUCAACACAGCGUGGCAAAGUGGCUGUGGCCAGACUGCC [C8G U38C],0.05
5,GGCACAGCUCAAUACAGCGUGGCAAAGUGGCUGUGGCUAGACUGCC [G5C C13U],0.05
6,GGCAGAGCUCAACACAGCGUGACAAAGUGGCUGUGACUAGACUGCC [G22A G36A],0.1
7,GGCAGAGCUCAACACAGCGUAGCAAAGUGGCUGUGGCUCGACUGCC [G21A A39C],0.68
8,GGCAGAGCUCAACACAGCGUGGCAAAGUGGAUGUGGCUAGACUGCC [C31A],0.15
9,GGCAGAGCUCAACACAGCGUGGCAAAGUGCCUGUUGCUAGACUGCC [G30C G35U],0.19
10,GGCAGAGCCCAACACAGCUUGGCAAAGUGGCUGUGGCUAGACUGCC [U9C G19U],0.08
11,GGCAGAGCUCCACACAGCGUGGCAAAGUAGCUGUGGCUAGACUGCC [A11C G29A],0.06
12,GGCAGAGCUCAACAGAGCGUGGCAAAGUGGCUGUGGCUAGGCUGCC [C15G A41G],0.04
13,GGCAGAUCUCAACACAGCGUGACAAAGUGGCUGUGGCUAGACUGCC [G7U G22A],0.08
14,GGCAGAGCUCAACACAGCUUGGCAAAGUGGCUGUGGCUAGACUGCU [G19U C46U],0.86
15,GGCAGAGCUCAACACAGCGUGGCAAAGUGCCUCUGGCUAGACUGCC [G30C G33C],0.03
16,GGCAGAGUUCAACACAGCGUGGGAAAGUGGCUGUGGCUAGACUGCC [C8U C23G],0.29
17,GGCAGAGUUCAACACAGCGUGGCAAAGUGGCUGUGACUAGACUGCC [C8U G36A],0.77
18,GGCAGAGCUCAACACAGCAUGGCAAAGUGACUGUGGCUAGACUGCC [G19A G30A],1.99
